We go through one protein from paper PMC10524599, “Sensory deficit screen identifies nsf mutation that differentially affects SNARE recycling and quality control” (Cell reports, 2023).

The data set deals with the molecule itself. As to the kind of experiment: SEC; NSF alone, reassembled to the hexamer by a final SEC run with buffer containing 1 mM ATP.

B1: I209N NSF (N-ethylmaleimide-sensitive factor, C. griseus ortholog with the I209N mutation) (enzyme)
chain: MAGRSMQAARCPTDELSLSNCAVVSEKDYQSGQHVIVRTSPNHKYIFTLRTHPSVVPGSVAFSLPQRKWAGLSIGQEIEVALYSFDKAKQCIGTMTIEIDFLQKKNIDSNPYDTDKMAAEFIQQFNNQAFSVGQQLVFSFNDKLFGLLVKDIEAMDPSILKGEPASGKRQKIEVGLVVGNSQVAFEKAENSSLNLIGKAKTKENRQSINNPDWNFEKMGIGGLDKEFSDIFRRAFASRVFPPEIVEQMGCKHVKGILLYGPPGCGKTLLARQIGKMLNAREPKVVNGPEILNKYVGESEANIRKLFADAEEEQRRLGANSGLHIIIFDEIDAICKQRGSMAGSTGVHDTVVNQLLSKIDGVEQLNNILVIGMTNRPDLIDEALLRPGRLEVKMEIGLPDEKGRLQILHIHTARMRGHQLLSADVDIKELAVETKNFSGAELEGLVRAAQSTAMNRHIKASTKVEVDMEKAESLQVTRGDFLASLENDIKPAFGTNQEDYASYIMNGIIKWGDPVTRVLDDGELLVQQTKNSDRTPLVSVLLEGPPHSGKTALAAKIAEESNFPFIKICSPDKMIGFSETAKCQAMKKIFDDAYKSQLSCVVVDDIERLLDYVPIGPRFSNLVLQALLVLLKKAPPQGRKLLIIGTTSRKDVLQEMEMLNAFSTTIHVPNIATGEQLLEALELLGNFKDKERTTIAQQVKGKKVWIGIKKLLMLIEMSLQMDPEYRVRKFLALLREEGASPLDFD
notes: legend gives 82.8 kDa monomeric, 496.8 kDa hexameric; also called NSF I209N; I209N NSF protein; source: E. coli BL21(DE3)-RIL, purified (Nickel-NTA, SEC; monomerized without ATP, reassembled by SEC with 1 mM ATP)
Take B1: the “stoichiometry N” value came out at 6.
